# Reference: the supplement of paper PMC11316812
# ± gives the standard deviation of the averaged measurements.
# Tests used:
# [1] = tested on: MCF7; assay: percentage of EdU-negative (G0-arrested) nuclei per well, 72 h; higher = more G0 arrest; conditions: reference: sequence is the full UniProt precursor, the tested protein was the secreted form or ectodomain
# [2] = tested on: hTERT-HMEC; assay: as above; conditions: reference: sequence is the full UniProt precursor, the tested protein was the secreted form or ectodomain
# [3] = protein concentration 0.0225 µM
# [4] = protein concentration 0.03125 µM
# [5] = protein concentration 0.3125 µM
# 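Further: secreted proteins added to cultured cells, EdU pulse at the end, nuclei found by Hoechst imaging, EdU status from nuclear versus surrounding ring intensity ratio, PBS as neutral control.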
Sequence,"percentage of EdU-negative [1, 3]",percentage of EdU-negative ([1]; protein concentration 0.225 µM),"percentage of EdU-negative [2, 3]",percentage of EdU-negative ([2]; protein concentration 0.225 µM),"percentage of EdU-negative [1, 4]","percentage of EdU-negative [1, 5]","percentage of EdU-negative [2, 4]","percentage of EdU-negative [2, 5]"
MDPRLPAWALVLLGPALVFALGPAPTPEMREKLCGHHFVRALVRVCGGPRWSTEARRPATGGDRELLQWLERRHLLHGLVADSNLTLGPGLQPLPQTSHHHRHHRAAATNPARYCCLSGCTQQDLLTLCPY,27 ± 2.5%,26.9 ± 2.5%,6.04 ± 0.67%,5.1 ± 0.54%,,,,
MDRAARCSGASSLPLLLALALGLVILHCVVADGNSTRSPETNGLLCGDPEENCAATTTQSKRKGHFSRCPKQYKHYCIKGRCRFVVAEQTPSCVCDEGYIGARCERVDLFYLRGDRGQILVICLIAVMVVFIILVIGVCTCCHPLRKRRKRKKKEEEMETLGKDITPINEDIEETNIA,,,,,24.5 ± 1.2%,23.3 ± 0.42%,5.5 ± 0.31%,5.88 ± 0.75%
MDRGTLPLAVALLLASCSLSPTSLAETVHCDLQPVGPERGEVTYTTSQVSKGCVAQAPNAILEVHVLFLEFPTGPSQLELTLQASKQNGTWPREVLLVLSVNSSVFLHLQALGIPLHLAYNSSLVTFQEPPGVNTTELPSFPKTQILEWAAERGPITSAAELNDPQSILLRLGQAQGSLSFCMLEASQDMGRTLEWRPRTPALVRGCHLEGVAGHKEAHILRVLPGHSAGPRTVTVKVELSCAPGDLDAVLILQGPPYVSWLIDANHNMQIWTTGEYSFKIFPEKNIRGFKLPDTPQGLLGEARMLNASIVASFVELPLASIVSLHASSCGGRLQTSPAPIQTTPPKDTCSPELLMSLIQTKCADDAMTLVLKKELVAHLKCTITGLTFWDPSCEAEDRGDKFVLRSAYSSCGMQVSASMISNEAVVNILSSSSPQRKKVHCLNMDSLSFQLGLYLSPHFLQASNTIEPGQQSFVQVRVSPSVSEFLLQLDSCHLDLGPEGGTVELIQGRAAKGNCVSLLSPSPEGDPRFSFLLHFYTVPIPKTGTLSCTVALRPKTGSQDQEVHRTVFMRLNIISPDLSGCTSKGLVLPAVLGITFGAFLIGALLTAALWYIYSHTRSPSKREPVVAVAAPASSESSSTNHSIGSTQSTPCSTSSMA,25.3 ± 2.4%,27.3 ± 2.9%,4.75 ± 0.063%,5.33 ± 0.45%,,,,
MDRRSRAQQWRRARHNYNDLCPPIGRRAATALLWLSCSIALLRALATSNARAQQRAAAQQRRSFLNAHHRSGAQVFPESPESESDHEHEEADLELSLPECLEYEEEFDYETESETESEIESETDFETEPETAPTTEPETEPEDDRGPVVPKHSTFGQSLTQRLHALKLRSPDASPSRAPPSTQEPQSPREGEELKPEDKDPRDPEESKEPKEEKQRRRCKPKKPTRRDASPESPSKKGPIPIRRH,27.2 ± 2.3%,25.8 ± 4.4%,3.95 ± 0.71%,5.43 ± 0.11%,,,,
MDSDETGFEHSGLWVSVLAGLLLGACQAHPIPDSSPLLQFGGQVRQRYLYTDDAQQTEAHLEIREDGTVGGAADQSPESLLQLKALKPGVIQILGVKTSRFLCQRPDGALYGSLHFDPEACSFRELLLEDGYNVYQSEAHGLPLHLPGNKSPHRDPAPRGPARFLPLPGLPPALPEPPGILAPQPPDVGSSDPLSMVGPSQGRSPSYAS [Q9NSA1],,,,,25 ± 1.2%,23.9 ± 1.2%,4.59 ± 0.26%,5.63 ± 0.48%
MDSSREPTLGRLDAAGFWQVWQRFDADEKGYIEEKELDAFFLHMLMKLGTDDTVMKANLHKVKQQFMTTQDASKDGRIRMKELAGMFLSEDENFLLLFRRENPLDSSVEFMQIWRKYDADSSGFISAAELRNFLRDLFLHHKKAISEAKLEEYTGTMMKIFDRNKDGRLDLNDLARILALQENFLLQFKMDACSTEERKRDFEKIFAYYDVSKTGALEGPEVDGFVKDMMELVQPSISGVDLDKFREILLRHCDVNKDGKIQKSELALCLGLKINP,40.5 ± 16%,25.7 ± 0.85%,4.77 ± 0.84%,5.6 ± 0.67%,,,,
MDSYLLMWGLLTFIMVPGCQAELCDDDPPEIPHATFKAMAYKEGTMLNCECKRGFRRIKSGSLYMLCTGNSSHSSWDNQCQCTSSATRNTTKQVTPQPEEQKERKTTEMQSPMQPVDQASLPGHCREPPPWENEATERIYHFVVGQMVYYQCVQGYRALHRGPAESVCKMTHGKTRWTQPQLICTGEMETSQFPGEEKPQASPEGRPESETSCLVTTTDFQIQTEMAATMETSIFTTEYQVAVAGCVFLLISVLLLSGLTWQRRQRKSRRTI,24.6 ± 0.99%,25.4 ± 1.9%,4.53 ± 0.75%,7.02 ± 0.61%,,,,
